What all share (experiment): ITC
One experiment addresses T1, hKDM5B PHD V346A (human, UniProt Q9UGL1 305-366, V346A).
T1 sequence (looked up): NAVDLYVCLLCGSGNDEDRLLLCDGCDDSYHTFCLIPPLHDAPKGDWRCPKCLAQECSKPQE

Another experiment addresses T2, hAIRE PHD C310L (human, UniProt O43918 294-343, C310L).
T2 chain (looked up): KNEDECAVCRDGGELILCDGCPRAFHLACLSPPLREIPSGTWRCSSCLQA

Experiment [1] concerns the target T3, hBAZ2A PHD finger (residues 1673–1728), wild type (human, UniProt Q9UIF9 1673-1728).
T3 sequence (looked up): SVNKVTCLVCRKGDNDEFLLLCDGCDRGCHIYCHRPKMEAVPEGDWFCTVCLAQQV

As for ARTKQTARKSTW [Histone H3 residues 1–11 (H3-1-11W)], the binding result (in the experiment with hKDM5B PHD V346A; in experiment [1]) was “binds” in each case. Also, the “fold increase in affinity against the wild type AIRE PHD” value with hAIRE PHD C310L was roughly 15 fold.
